According to patent publication US20250179187A1 (REJUVERON SENESCENCE THERAPEUTICS, published 2025):
Substitutions are numbered along the chain they refer to. Like-named read-outs stand apart in the source and are kept apart here. Blank lines part the entries; values can stand above or below the binder they belong to.

Columns and labels:
[1] = biological target: T1, recombinant human PD-L2 (human PD-L2 antigen) (human, UniProt Q9BQ51 20-219, limits assumed); experiment: SPR (Biacore 8K), single cycle kinetics, antibody in culture supernatant, human PD-L2 antigen
T1 construct: The Biacore analyte and the ELISA antigen are only called human PD-L2 antigen / recombinant hPD-L2; Whole entry named; also called hPD-L2; recombinant hPD-L2
T1 sequence (looked up): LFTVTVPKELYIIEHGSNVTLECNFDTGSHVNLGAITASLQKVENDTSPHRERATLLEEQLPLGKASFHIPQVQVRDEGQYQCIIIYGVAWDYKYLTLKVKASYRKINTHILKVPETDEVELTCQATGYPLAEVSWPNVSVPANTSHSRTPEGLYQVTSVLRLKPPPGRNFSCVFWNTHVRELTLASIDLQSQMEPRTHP
Source text: Table 2: Single cycle kinetic parameters of chimeric (VH0/VK0) and humanized variants (tested as cell culture supernatants) binding to human PD-L2 antigen as determined using the Biacore 8K. As used herein, the term “KD” is intended to refer to the dissociation equilibrium constant of a particular antibody-antigen interaction, ka is the binding rate constant and kd is the dissociation rate constant. The binding affinity of antibodies of the disclosed invention may be measured or determined by standard antibody-antigen assays. The relative KD was calculated by dividing the KD of the humanized variant by that of the VH0/VK0 assayed in the same experiment.

[2] = biological target: T2, mouse PD-L2 on CHO-K1 cells over-expressing mPD-L2 GFP (mouse, UniProt Q9WUL5 20-247); experiment: flow cytometry on CHO-K1 cells overexpressing mPD-L2, mean fluorescence
T2 construct: whole, on cells; also called cellular mPD-L2; not shown: GFP of the mPD-L2 GFP construct
T2 sequence (looked up): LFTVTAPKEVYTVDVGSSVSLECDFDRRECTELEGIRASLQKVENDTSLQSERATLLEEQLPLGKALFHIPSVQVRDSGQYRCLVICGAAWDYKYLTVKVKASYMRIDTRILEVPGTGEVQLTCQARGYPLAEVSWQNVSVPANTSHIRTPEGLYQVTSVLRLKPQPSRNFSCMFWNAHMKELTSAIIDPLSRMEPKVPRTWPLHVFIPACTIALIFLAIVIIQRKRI
Protocol: CHO-K1 cells over-expressing either hPDL2-GFP or mPD-L2 GFP were detached, washed in phosphate buffered saline (PBS) and adjusted to a cell concentration of around 1 million cells in cytometry buffer (CB, PBS containing 1% […]). Around 80,000 cells were then distributed into a round-bottom 96 well plate and the plate was centrifuged for 3 minutes at 400 g at 4° C. and supernatant discarded. Appropriate antibody concentrations in 50 microliter volumes were added to the wells and incubated for 30 minutes at 6-8° C. The plate was washed 3 times with PBS and relevant secondary antibodies (either AlexaFluor 647 Goat anti-Mouse IgG (H+L) (Invitrogen A21235/lot 1915807) or AlexaFluor 647 Goat anti-Rat IgG (H+L) (Invitrogen A21247/lot 1921562) were added for 30 minutes at 4° C. Cells were again washed with PBS two times, resuspended in CB and analyzed in either the Sony ID7000 Spectral Cell analyzer (Sony) or the GALLIOS Flow Cytometer (Beckman-Coulter) was used. EC₅₀ was calculated using the Sigmoidal 4PL equation of the GraphPad Prism-9 software.

[3] = biological target: T3, human PD-L2 on CHO-K1 cells of the Promega PD-1/PD-L2 blockade bioassay (human, UniProt Q9BQ51 20-273); experiment: cell-based or functional assay
T3 sequence (looked up): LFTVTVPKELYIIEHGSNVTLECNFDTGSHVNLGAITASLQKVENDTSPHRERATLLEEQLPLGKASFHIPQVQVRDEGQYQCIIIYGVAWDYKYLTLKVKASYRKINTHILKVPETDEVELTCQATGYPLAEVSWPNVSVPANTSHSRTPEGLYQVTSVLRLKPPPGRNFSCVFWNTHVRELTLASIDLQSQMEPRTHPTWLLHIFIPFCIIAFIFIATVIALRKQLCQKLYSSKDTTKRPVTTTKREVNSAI

[4] = biological target: T3, human PD-L2 on CHO-K1 cells of the …; experiment: cell-based or functional assay; remark: listed apart in the source

- Kd [1]: 52.3 pM
- Relative KD (KD of variant / KD of VH0/VK0) [1]: 1.46
- koff [1]: 0.000118 s⁻¹
- EC50 (PD-1/PD-L2 blockade reporter assay, luminescence) [3]: 600 pM
B2: VH7/VK2 (antibody, V domains shown)
VH: QVQLVQSGAELKKPGSSVKVSCKASGYAFSNYFIEWVKQPPGKGLEWIGLNIPGSGGSNYAEKFKGRATITADKSTSTAYMELSSLRSEDTAVYYCARRRLPPDWYFDVWGQGTTVTVSS
VL: DVVMTQSPLSLPVTLGQPASISCRSSQSLVHSDGNTYLHWYQQKPGQPPKLLIYKVSNRFSGVPDRFSGSGSGTDFTLKISRVEAEDVGVYYCSQSTHVPWTFGGGTKVEIK
notes: hIgG1 backbone, CHO expressed

- Kd [1]: 53 pM
- Relative KD (KD of variant / KD of VH0/VK0) [1]: 1.48
- koff [1]: 0.00012 s⁻¹
B3: VH8/VK1 (antibody, V domains shown)
VH: B2 VH with L11V
VL: B2 VL with Y92F
notes: hIgG1 backbone, CHO expressed

- Kd [1]: 244 pM
- Relative KD (KD of variant / KD of VH0/VK0) [1]: 6.82
- koff [1]: 0.000388 s⁻¹
B11: VH8/VK3 (antibody, V domains shown)
VH: B2 VH with L11V
VL: B2 VL with D33G, Y92F
notes: hIgG1 backbone, CHO expressed

- Kd [1]: 55.5 pM
- Relative KD (KD of variant / KD of VH0/VK0) [1]: 1.55
- koff [1]: 0.000122 s⁻¹
B13: VH2/VK2 (antibody, V domains shown)
VH: B2 VH with L11V, T91S, Y95F
VL: B2 VL
notes: hIgG1 backbone, CHO expressed

- Kd [1]: 52.9 pM
- Relative KD (KD of variant / KD of VH0/VK0) [1]: 1.48
- koff [1]: 0.000121 s⁻¹
- EC50 (PD-1/PD-L2 blockade reporter assay, luminescence) [3]: 820 pM
B17: VH6/VK1 (antibody, V domains shown)
VH: B2 VH with L11V, A28S, A68V
VL: B2 VL with Y92F
notes: hIgG1 backbone, CHO expressed

- Kd [1]: 49.9 pM
- Relative KD (KD of variant / KD of VH0/VK0) [1]: 1.39
- koff [1]: 0.000113 s⁻¹
B21: VH7/VK1 (antibody, V domains shown)
VH: B2 VH
VL: B2 VL with Y92F
notes: hIgG1 backbone, CHO expressed

- Kd [1]: 42.7 pM
- Relative KD (KD of variant / KD of VH0/VK0) [1]: 1.19
- koff [1]: 0.000109 s⁻¹
B23: VH1/VK0 (antibody, V domains shown)
VH: B2 VH with R87T, T91S, Y95F
VL: B2 VL with S7T, T14S, Q17D, P18Q, Q42L, P48S, V88L, Y92F, V109L
notes: hIgG1 backbone, CHO expressed

Continued, binder first:

B1: VH0/VK0 chimeric antibody (hIgG1 backbone) (antibody, V domains shown)
VH: QVQLQQSGAELVRPGTSVKVSCKASGYAFSNYFIEWVKQRPGQGLEWIGLNIPGSGGSNYAEKFKGKATLTADKSSSTAYMQLSSLTSEDSAVYFCARRRLPPDWYFDVWGTGTTVTVSS
VL: B2 VL with S7T, T14S, Q17D, P18Q, Q42L, P48S, V88L, Y92F, V109L
notes: Mouse variable regions on human IgG1 backbone, expressed in CHO cells; also called chimeric anti-PDL2 lead mAb VH0/VK0
- Kd [1]: 35.8 pM
- Relative KD (KD of variant / KD of VH0/VK0) [1]: 1
- koff [1]: 9.72e-05 s⁻¹
- kon [1]: 2.72e+06 M⁻¹ s⁻¹
- EC50 [2]: 160 pM
- EC50 (PD-1/PD-L2 blockade reporter assay, luminescence) [3]: 640 pM

B4: VH4/VK2 (antibody, V domains shown)
VH: B2 VH with L11V, A68V
VL: B2 VL
notes: hIgG1 backbone, CHO expressed
- Kd [1]: 59.6 pM
- Relative KD (KD of variant / KD of VH0/VK0) [1]: 1.66
- koff [1]: 0.000129 s⁻¹

B5: VH1/VK1 (antibody, V domains shown)
VH: B2 VH with R87T, T91S, Y95F
VL: B2 VL with Y92F
notes: hIgG1 backbone, CHO expressed
- Kd [1]: 47.5 pM
- Relative KD (KD of variant / KD of VH0/VK0) [1]: 1.33
- koff [1]: 0.00011 s⁻¹

B6: VH4/VK1 (antibody, V domains shown)
VH: B2 VH with L11V, A68V
VL: B2 VL with Y92F
notes: hIgG1 backbone, CHO expressed
- Kd [1]: 58.6 pM
- Relative KD (KD of variant / KD of VH0/VK0) [1]: 1.64
- koff [1]: 0.000125 s⁻¹

B7: VH2/VK3 (antibody, V domains shown)
VH: B2 VH with L11V, T91S, Y95F
VL: B2 VL with D33G, Y92F
notes: hIgG1 backbone, CHO expressed
- Kd [1]: 267 pM
- Relative KD (KD of variant / KD of VH0/VK0) [1]: 7.46
- koff [1]: 0.000414 s⁻¹

B8: VH3/VK2 (antibody, V domains shown)
VH: B2 VH with L11V, A68V, T91S, Y95F
VL: B2 VL
notes: hIgG1 backbone, CHO expressed
- Kd [1]: 60.4 pM
- Relative KD (KD of variant / KD of VH0/VK0) [1]: 1.69
- koff [1]: 0.000132 s⁻¹

B9: VH1/VK2 (antibody, V domains shown)
VH: B2 VH with R87T, T91S, Y95F
VL: B2 VL
notes: hIgG1 backbone, CHO expressed
- Kd [1]: 48.7 pM
- Relative KD (KD of variant / KD of VH0/VK0) [1]: 1.36
- koff [1]: 0.000116 s⁻¹

B10: VH1/VK3 (antibody, V domains shown)
VH: B2 VH with R87T, T91S, Y95F
VL: B2 VL with D33G, Y92F
notes: hIgG1 backbone, CHO expressed
- Kd [1]: 223 pM
- Relative KD (KD of variant / KD of VH0/VK0) [1]: 6.23
- koff [1]: 0.000365 s⁻¹

B12: VH4/VK3 (antibody, V domains shown)
VH: B2 VH with L11V, A68V
VL: B2 VL with D33G, Y92F
notes: hIgG1 backbone, CHO expressed
- Kd [1]: 287 pM
- Relative KD (KD of variant / KD of VH0/VK0) [1]: 8.02
- koff [1]: 0.000466 s⁻¹

B14: VH7/VK3 (antibody, V domains shown)
VH: B2 VH
VL: B2 VL with D33G, Y92F
notes: hIgG1 backbone, CHO expressed
- Kd [1]: 222 pM
- Relative KD (KD of variant / KD of VH0/VK0) [1]: 6.2
- koff [1]: 0.000344 s⁻¹

B15: VH6/VK3 (antibody, V domains shown)
VH: B2 VH with L11V, A28S, A68V
VL: B2 VL with D33G, Y92F
notes: hIgG1 backbone, CHO expressed
- EC50 (PD-1/PD-L2 blockade reporter assay, luminescence) [4]: 1110 pM
- Kd [1]: 262 pM
- Relative KD (KD of variant / KD of VH0/VK0) [1]: 7.32
- koff [1]: 0.000444 s⁻¹
- EC50 (PD-1/PD-L2 blockade reporter assay, luminescence) [3]: 620 pM

B16: VH2/VK1 (antibody, V domains shown)
VH: B2 VH with L11V, T91S, Y95F
VL: B2 VL with Y92F
notes: hIgG1 backbone, CHO expressed
- Kd [1]: 55.1 pM
- Relative KD (KD of variant / KD of VH0/VK0) [1]: 1.54
- koff [1]: 0.000119 s⁻¹

B18: VH3/VK1 (antibody, V domains shown)
VH: B2 VH with L11V, A68V, T91S, Y95F
VL: B2 VL with Y92F
notes: hIgG1 backbone, CHO expressed
- Kd [1]: 60.6 pM
- Relative KD (KD of variant / KD of VH0/VK0) [1]: 1.69
- koff [1]: 0.000128 s⁻¹

B19: VH3/VK3 (antibody, V domains shown)
VH: B2 VH with L11V, A68V, T91S, Y95F
VL: B2 VL with D33G, Y92F
notes: hIgG1 backbone, CHO expressed
- Kd [1]: 314 pM
- Relative KD (KD of variant / KD of VH0/VK0) [1]: 8.77
- koff [1]: 0.000497 s⁻¹

B20: VH6/VK2 (antibody, V domains shown)
VH: B2 VH with L11V, A28S, A68V
VL: B2 VL
notes: hIgG1 backbone, CHO expressed
- Kd [1]: 58.8 pM
- Relative KD (KD of variant / KD of VH0/VK0) [1]: 1.64
- koff [1]: 0.000128 s⁻¹
- EC50 (PD-1/PD-L2 blockade reporter assay, luminescence) [3]: 640 pM

B22: VH0/VK1 (antibody, V domains shown)
VH: B1 VH
VL: B2 VL with Y92F
notes: hIgG1 backbone, CHO expressed
- Kd [1]: 37.9 pM
- Relative KD (KD of variant / KD of VH0/VK0) [1]: 1.06
- koff [1]: 9.88e-05 s⁻¹
